Measurements published in patent US20260209352A1 (Adimab, published 2026).
Where a chain is given by its changes, count along the chain named.

B1: ADI-42594 (antibody, V domains shown)
VH: QVQLVQSGAEVKKPGASVKVSCKASGFNIKDYYMHWVRQAPGQRLEWIGWIDLENANTVYDAKFQGRVTITRDTSASTAYMELSSLRSEDTAVYYCARDAYGRYFYDVWGQGTLVTVSS
VL: DIVMTQSPDSLAVSLGERATINCKSSQSLLNARTGKNYLAWYQQKPGQPPKLLIYWASTRESGVPDRFSGSGSGTDFTLTISSLQAEDVAVYYCKQSYFRRTFGGGTKVEIK
notes: also called Ab1
B2: ADI-46378 (antibody, V domains shown)
VH: B1 VH with T78A
VL: B1 VL with G35R, Q48R, K95V
notes: also called Ab40
B3: ADI-46359 (antibody, V domains shown)
VH: B1 VH with R103Q
VL: B1 VL with K95T
notes: also called Ab42
B4: ADI-46357 (antibody, V domains shown)
VH: B1 VH
VL: B1 VL with K95A
notes: also called Ab30
B5: ADI-46366 (antibody, V domains shown)
VH: B1 VH with R103Q
VL: B1 VL with K95V
notes: also called Ab50
B6: ADI-45983 (antibody, V domains shown)
VH: B1 VH with S77G
VL: B1 VL with G35M, W56A, K95A
notes: also called Ab20
B7: ADI-45978 (antibody, V domains shown)
VH: B1 VH with I48L
VL: B1 VL with T59A, K95T
notes: also called Ab15
B8: ADI-45984 (antibody, V domains shown)
VH: B1 VH
VL: B1 VL with G35R, K95V
notes: also called Ab21
B9: ADI-45973 (antibody, V domains shown)
VH: B1 VH with G8E
VL: B1 VL
notes: also called Ab9
B10: ADI-45960 (antibody, V domains shown)
VH: B1 VH
VL: B1 VL with V89A, K95A
notes: also called Ab23
B11: ADI-45965 (antibody, V domains shown)
VH: B1 VH with T58A
VL: B1 VL with E17G, K95V
notes: also called Ab28
B12: ADI-45962 (antibody, V domains shown)
VH: B1 VH with K12E, K13E
VL: B1 VL with K95V
notes: also called Ab25
B13: ADI-45977 (antibody, V domains shown)
VH: B1 VH with F64L, R87G
VL: B1 VL with K95T
notes: also called Ab14
B14: ADI-45971 (antibody, V domains shown)
VH: B1 VH with S17T, M34I
VL: B1 VL with G35R, K95V
notes: also called Ab7
B15: ADI-45974 (antibody, V domains shown)
VH: B1 VH with S85N
VL: B1 VL
notes: also called Ab10
B16: ADI-45970 (antibody, V domains shown)
VH: B1 VH with I29V
VL: B1 VL
notes: also called Ab6
B17: ADI-45967 (antibody, V domains shown)
VH: B1 VH with T71A, A79V
VL: B1 VL with T20I, K95T
notes: also called Ab3
B18: ADI-45963 (antibody, V domains shown)
VH: B1 VH with S17P
VL: B1 VL
notes: also called Ab26
B19: ADI-45979 (antibody, V domains shown)
VH: B1 VH
VL: B1 VL with S28E
notes: also called Ab16
B20: ADI-45985 (antibody, V domains shown)
VH: B1 VH
VL: B1 VL with S25T, G35N, K95V
notes: also called Ab22
B21: ADI-45964 (antibody, V domains shown)
VH: B1 VH with M34I
VL: B1 VL with K95A
notes: also called Ab27
B22: ADI-45966 (antibody, V domains shown)
VH: B1 VH with T69A
VL: B1 VL with K95T
notes: also called Ab29
B23: ADI-45982 (antibody, V domains shown)
VH: B1 VH
VL: B1 VL with S62N, K95T
notes: also called Ab19
B24: ADI-45961 (antibody, V domains shown)
VH: B1 VH
VL: B1 VL with G35R, K36R, A57G
notes: also called Ab24
B25: ADI-45981 (antibody, V domains shown)
VH: B1 VH
VL: B1 VL with T59M, G72R, K95S
notes: also called Ab18
B26: ADI-45980 (antibody, V domains shown)
VH: B1 VH with S84N
VL: B1 VL with S58F, K95T
notes: also called Ab17
B27: ADI-45968 (antibody, V domains shown)
VH: B1 VH with T74A
VL: B1 VL with K95V
notes: also called Ab4
B28: ADI-45969 (antibody, V domains shown)
VH: B1 VH with S84G
VL: B1 VL with K95A
notes: also called Ab5
B29: ADI-45972 (antibody, V domains shown)
VH: B1 VH with K13R
VL: B1 VL with K95V
notes: also called Ab8
B30: ADI-45976 (antibody, V domains shown)
VH: B1 VH with A97V
VL: B1 VL with K95V
notes: also called Ab12

Target: T1, Cynomolgus CD3 on Cyno CD3+ Jurkat cells (cynomolgus, UniProt Q95LI5 22-198)
T1 construct: whole, on cells; CD3 on cells; also called cCD3
Test: cell binding, cyno CD3+ Jurkat cells

T1 sequence (Q95LI5 22-198): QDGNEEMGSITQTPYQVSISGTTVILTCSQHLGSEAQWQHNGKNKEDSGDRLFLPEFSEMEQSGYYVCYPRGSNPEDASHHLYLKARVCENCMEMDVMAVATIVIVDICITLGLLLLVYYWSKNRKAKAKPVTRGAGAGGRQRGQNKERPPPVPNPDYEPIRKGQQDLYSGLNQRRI

Binder	Cell Binding Fold Over Background (FOB)
B1	16 FOB
B2	30 FOB
B3	28 FOB
B4	20 FOB
B5	32 FOB

Target: T2, Human CD3 on Human CD3+ Jurkat cells (human, UniProt P07766 23-207)
T2 construct: whole, on cells; CD3 complex on cells; also called hCD3
Test: cell binding, human CD3+ Jurkat cells

T2 sequence (P07766 23-207): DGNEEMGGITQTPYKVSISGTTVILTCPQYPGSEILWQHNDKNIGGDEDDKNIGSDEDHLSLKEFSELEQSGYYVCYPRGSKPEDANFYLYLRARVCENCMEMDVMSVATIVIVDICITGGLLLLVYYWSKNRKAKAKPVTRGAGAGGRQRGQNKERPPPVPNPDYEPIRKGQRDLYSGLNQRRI

Binder	Cell Binding Fold Over Background (FOB)
B1	14 FOB
B2	17 FOB
B3	15 FOB
B4	13 FOB
B5	16 FOB

Target: T1, Cynomolgus CD3 on Cyno CD3+ Jurkat cells
Test: cell binding cCD3, fold over background

Binder	Cell Binding cCD3 (FOB)
B1	122 FOB
B6	101 FOB
B7	37 FOB
B2	91 FOB
B8	92 FOB
B9	91 FOB
B10	58 FOB
B11	124 FOB
B12	46 FOB
B13	159 FOB
B14	20 FOB
B15	67 FOB
B16	68 FOB
B17	59 FOB
B18	69 FOB
B19	72 FOB
B3	102 FOB
B20	23 FOB
B21	63 FOB
B4	80 FOB
B22	27 FOB
B23	31 FOB
B5	108 FOB
B24	30 FOB
B25	78 FOB
B26	85 FOB
B27	18 FOB
B28	63 FOB
B29	45 FOB
B30	109 FOB

Target: T2, Human CD3 on Human CD3+ Jurkat cells
Test: cell binding hCD3, fold over background

Binder	Cell Binding hCD3 (FOB)
B1	36 FOB
B6	24 FOB
B7	25 FOB
B2	22 FOB
B8	88 FOB
B9	55 FOB
B10	63 FOB
B11	33 FOB
B12	18 FOB
B13	59 FOB
B14	21 FOB
B15	47 FOB
B16	53 FOB
B17	40 FOB
B18	14 FOB
B19	54 FOB
B3	43 FOB
B20	21 FOB
B21	56 FOB
B4	24 FOB
B22	14 FOB
B23	24 FOB
B5	43 FOB
B24	18 FOB
B25	33 FOB
B26	8 FOB
B27	16 FOB
B28	28 FOB
B29	32 FOB
B30	45 FOB

Target: Human CD3εδ-Fc (human) (UniProt P04234)
Test: Biacore SPR, monovalent KD, biotinylated human CD3εδ-Fc

Sequence of Human CD3εδ-Fc (human) (chain, as listed by the source mutant, chain 1 of 2): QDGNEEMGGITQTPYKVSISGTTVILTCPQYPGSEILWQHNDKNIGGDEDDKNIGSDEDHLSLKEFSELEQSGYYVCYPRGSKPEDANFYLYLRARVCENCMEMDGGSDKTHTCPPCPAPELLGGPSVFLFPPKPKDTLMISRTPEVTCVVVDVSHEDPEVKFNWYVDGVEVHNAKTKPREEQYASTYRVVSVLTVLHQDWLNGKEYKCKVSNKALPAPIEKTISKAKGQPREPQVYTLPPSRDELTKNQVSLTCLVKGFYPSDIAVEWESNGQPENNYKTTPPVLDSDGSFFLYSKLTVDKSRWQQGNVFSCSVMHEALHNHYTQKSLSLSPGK
Sequence of Human CD3εδ-Fc (human) (P04234 22-105, stated change not applied, chain 2 of 2): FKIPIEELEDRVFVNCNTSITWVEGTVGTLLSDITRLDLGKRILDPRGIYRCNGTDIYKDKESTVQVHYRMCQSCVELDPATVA

Binder	Kd
B1	0.47 nM
B2	0.12 nM
B3	0.22 nM
B4	0.25 nM
B5	0.23 nM

Target: Cyno CD3εδ-Fc (cynomolgus) (UniProt Q95LI8)
Test: KD of scFv-Fc or IgG on cyno CD3εδ-Fc; instrument not given

Sequence of Cyno CD3εδ-Fc (cynomolgus) (chain, as listed by the source mutant, chain 1 of 2): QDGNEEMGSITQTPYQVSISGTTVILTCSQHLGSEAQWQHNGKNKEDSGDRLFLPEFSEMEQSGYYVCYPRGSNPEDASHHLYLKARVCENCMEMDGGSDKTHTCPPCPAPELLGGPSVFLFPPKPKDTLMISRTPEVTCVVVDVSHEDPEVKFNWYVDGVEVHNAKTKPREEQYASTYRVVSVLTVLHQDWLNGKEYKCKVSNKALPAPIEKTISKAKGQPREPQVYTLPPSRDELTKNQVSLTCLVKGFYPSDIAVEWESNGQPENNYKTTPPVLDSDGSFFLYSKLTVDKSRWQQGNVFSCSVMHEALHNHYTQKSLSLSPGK
Sequence of Cyno CD3εδ-Fc (cynomolgus) (Q95LI8 22-105, stated change not applied, chain 2 of 2): as the sequence (P04234 22-105, stated change not applied, chain 2 of 2) above, with I5V, N15K, I20V, S32T, D33N, I34N, T64A, S74N, V83L counted along it

Binder	Kd
B1	2 nM
B6	2 nM
B7	1.2 nM
B8	1.3 nM
B9	1.8 nM
B10	1.8 nM
B11	1.4 nM
B12	1.4 nM
B13	1.1 nM
B14	1.9 nM
B15	2.1 nM
B16	1.6 nM
B17	1.4 nM
B18	2.1 nM
B19	1.7 nM
B20	1.2 nM
B21	2 nM
B22	1.2 nM
B23	1.4 nM
B24	3 nM
B25	1.6 nM
B26	1.2 nM
B27	1.4 nM
B28	1.5 nM
B29	1.4 nM
B30	1.8 nM

Target: Human CD3εδ-Fc (human) (UniProt P04234)
Test: KD of scFv-Fc or IgG on human CD3εδ-Fc; instrument not given

Binder	Kd
B1	0.2 nM
B6	0.23 nM
B7	0.074 nM
B2	0.92 nM
B8	0.095 nM
B9	0.16 nM
B10	0.14 nM
B11	0.065 nM
B12	0.14 nM
B13	0.091 nM
B14	0.11 nM
B15	0.19 nM
B16	0.15 nM
B17	0.076 nM
B18	0.069 nM
B19	0.19 nM
B3	0.89 nM
B20	0.08 nM
B21	0.097 nM
B4	0.97 nM
B22	0.061 nM
B23	0.12 nM
B5	0.93 nM
B24	0.23 nM
B25	0.089 nM
B26	0.08 nM
B27	0.068 nM
B28	0.06 nM
B29	0.081 nM
B30	0.12 nM
